Experimental data published in article PMC2795092.

Target: purified full-length human hexahistidine-tagged 14-3-3η (human) (UniProt Q04917)
Assay: pull-down

UniProt Q04917, sequence (Q04917 whole entry): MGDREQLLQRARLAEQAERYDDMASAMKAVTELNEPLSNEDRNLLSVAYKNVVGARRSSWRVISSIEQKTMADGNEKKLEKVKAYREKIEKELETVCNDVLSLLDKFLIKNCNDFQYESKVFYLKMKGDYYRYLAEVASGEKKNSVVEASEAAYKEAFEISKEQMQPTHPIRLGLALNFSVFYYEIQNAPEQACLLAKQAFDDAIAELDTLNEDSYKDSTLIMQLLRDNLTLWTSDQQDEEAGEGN

densitometry of bound [35S] AR: 15000
Substance: in vitro translated 35S-labeled androgen receptor (AR) (from UniProt P10275 1-920)
